From publication PMC7809796

Molecular target: Cdc4 (UniProt P07834)
Assay: His-Far1
Details: reference: wild type Far1(85-150)

binding against the reference (sites S91)	binding against the reference (sites S87)	Substance
lost	–	Far1 85-150 (from UniProt P21268) S91 mutant (taken as S91A; not spelled out in text)
–	lost	Far1 85-150 (from UniProt P21268) S87 mutant (taken as S87A; not spelled out in text)
